In the assay the target is recombinant anti-human CD3 antibody with TEV cleavage site in the upper hinge region of mouse IgG1 (mouse) [IgG part: P01868]. Kind of assay: cell-based or functional assay.

With “AcTEV™ Protease (from UniProt P04517 2038-2279) (enzyme)”, the kappa-positive faction of beads after one hour incubation with the protease, 37° C. was 7% and the kappa-positive faction of beads after one hour incubation with the protease, room temperature amounted to 19%.
